Data published in patent US20260209362A1 (VIB VZW, published 2026).
Residue numbers refer to the chain shown, from its start.

B1: anti-IL-12Rβ2 VHH clone 20446 (VHH, not shown: small tags and cut ends)
VHH: QVQLQESGGGLVQPGGSLRLSCTASGSIFASDDMYWYRQAPGKQREFVAYITATNSANYLDSVNGRFTISRDNAKNSVYLQMNSLKPEDTAVYYCNAKQIVGFQIDEYWGQGTQVTVSS
notes: tested as periplasmic extract; also called 2CRM32
B2: anti-IL-12Rβ2 VHH clone 20454 (VHH, not shown: small tags and cut ends)
VHH: B1 VHH with P14A, G16D, S31I, K75E, A91V
notes: tested as periplasmic extract; also called 2CRM93
B3: anti-IL-12Rβ2 VHH clone 20455 (VHH, not shown: small tags and cut ends)
VHH: B1 VHH with S31I, A97T
notes: tested as periplasmic extract; also called 3CRM6
B4: anti-IL-12Rβ2 VHH clone 20456 (VHH, not shown: small tags and cut ends)
VHH: B1 VHH with R19T, S31I
notes: tested as periplasmic extract; also called 3CRM14
B5: anti-IL-12Rβ2 VHH clone 20458 (VHH, not shown: small tags and cut ends)
VHH: B1 VHH with P14A, S31I, Q44E
notes: tested as periplasmic extract; also called 3CRM45
B6: anti-IL-12Rβ2 VHH clone 20464 (VHH, not shown: small tags and cut ends)
VHH: B1 VHH with P14A, S21F, S31I
notes: tested as periplasmic extract; also called 3CRM86
B7: anti-IL-12Rβ2 VHH clone 20517 (VHH, not shown: small tags and cut ends)
VHH: B1 VHH with V12A, S31I
notes: tested as periplasmic extract; also called 2CRMS10
B8: anti-IL-12Rβ2 VHH clone 20518 (VHH, not shown: small tags and cut ends)
VHH: B1 VHH with S31I, K43R
notes: tested as periplasmic extract; also called 2CRMS15
B9: anti-IL-12Rβ2 VHH clone 20519 (VHH, not shown: small tags and cut ends)
VHH: B1 VHH with P14A, G16E, S31I
notes: tested as periplasmic extract; also called 2CRMS16
B10: anti-IL-12Rβ2 VHH clone 20522 (VHH, not shown: small tags and cut ends)
VHH: B1 VHH with S31I, E107D
notes: tested as periplasmic extract; also called 2CRMS58
B11: anti-IL-12Rβ2 VHH clone 20524 (VHH, not shown: small tags and cut ends)
VHH: B1 VHH with P14A, S31I, S62P
notes: tested as periplasmic extract; also called 3CRMS14
B12: anti-IL-12Rβ2 VHH clone 20529 (VHH, not shown: small tags and cut ends)
VHH: B1 VHH with L11S, P14A, G16D, S31I
notes: tested as periplasmic extract; also called 3CRMS94
B13: anti-IL-12Rβ2 VHH clone 20542 (VHH, not shown: small tags and cut ends)
VHH: QVQLQESGGGLVQAGGSLRLSCAASGRTFSTYAMGWFRQAPGKEREFVAAISWSGGRTYYADSVKGRFTISRDNAKNTAYLQMSSLIPEDTAVYYCAADPADYTGSYYYQRSYDYWGQGTQVTVSS
notes: tested as periplasmic extract; also called 3CAMS12
B14: anti-IL-12Rβ2 VHH clone 20466 (VHH, not shown: small tags and cut ends)
VHH: B13 VHH with G16D, A24P, A50G, A79V, S84N, I87K, A101M, T104S, Y107L, Y109A
notes: tested as periplasmic extract; also called 2CAM2
B15: anti-IL-12Rβ2 VHH clone 20471 (VHH, not shown: small tags and cut ends)
VHH: QVQLQESGGGLVQAGGSLRLSCAASGRTFVTYAMGWFRQAPGKEREFVAAISWSGGRLYYADSAKGRFTISRDNAKNTVYLQMNSLKPEDTAVYYCAADPQDYTGRDYQRRRYDYWGQGTQVTVSS
notes: tested as periplasmic extract; also called 2CAM11
B16: anti-IL-12Rβ2 VHH clone 20515 (VHH, not shown: small tags and cut ends)
VHH: B13 VHH with T69A, S84N, I87K, A101S, T104M, Y109G, Q110A, S112R
notes: tested as periplasmic extract; also called 3CAM79
B17: anti-IL-12Rβ2 VHH clone 20532 (VHH, not shown: small tags and cut ends)
VHH: B15 VHH with A64V
notes: tested as periplasmic extract; also called 2CAMS19
B18: anti-IL-12Rβ2 VHH clone 20553 (VHH, not shown: small tags and cut ends)
VHH: B13 VHH with A14P
notes: tested as periplasmic extract; also called 3CAMS73
B19: anti-IL-12Rβ2 VHH clone 20474 (VHH, not shown: small tags and cut ends)
VHH: QVQLQESGGGLVQAGGSLRLSCAASGFTFDDYTIGWFRQAPGKEREFVAALSWSAGSTFFTDSVKDRFSISRDNAKNTVLLQMNSLKPEDTAVYYCAAKNPPHRWSDITKSLQYAYWGQGTQVTVSS
notes: tested as periplasmic extract; also called 2CAM16
B20: anti-IL-12Rβ2 VHH clone 20479 (VHH, not shown: small tags and cut ends)
VHH: QVQLQESGGGLVQTGGSLRLSCAASGRTFSNSVMGWFRQAPGKEREFVAALMWSAGSEFYTDSVKGRFSISGDGAKNTVYLQMNSLKAEDTAVYYCAAKNPPHRWSDIGKSPHYEYWGQGTQVTVSS
notes: tested as periplasmic extract; also called 2CAM33
B21: anti-IL-12Rβ2 VHH clone 20483 (VHH, not shown: small tags and cut ends)
VHH: B20 VHH with T14A, M34I, M52S, T61V, V64F, G72R, G74N, A88P, H113Q, E115A
notes: tested as periplasmic extract; also called 2CAM41
B22: anti-IL-12Rβ2 VHH clone 20484 (VHH, not shown: small tags and cut ends)
VHH: B20 VHH with T14P
notes: tested as periplasmic extract; also called 2CAM42
B23: anti-IL-12Rβ2 VHH clone 20496 (VHH, not shown: small tags and cut ends)
VHH: B20 VHH with T14A, F29L
notes: tested as periplasmic extract; also called 2CAM71
B24: anti-IL-12Rβ2 VHH clone 20468 (VHH, not shown: small tags and cut ends)
VHH: QVQLQESGGGLVQAGGSLRLSCVASGRTFSSYGMGWFRQAPGKEREFVTGISSAGSWIGDITSYADSVKGRFTISRDNAKNILYLQMNSLKPEDTAVYYCAAAYHGSRYYVGSTANEYTTWGQGTQVTVSS
notes: tested as periplasmic extract; also called 2CAM6
B25: anti-IL-12Rβ2 VHH clone 20493 (VHH, not shown: small tags and cut ends)
VHH: B24 VHH with G15E
notes: tested as periplasmic extract; also called 2CAM62
B26: anti-IL-12Rβ2 VHH clone 20530 (VHH, not shown: small tags and cut ends)
VHH: B24 VHH with G16D, V23A, S31N, G33N, F37L
notes: tested as periplasmic extract; also called 2CAMS7
B27: anti-IL-12Rβ2 VHH clone 20476 (VHH, not shown: small tags and cut ends)
VHH: QVQLQESGGGSVQAGGSLRLSCAVFGLSFKDYSMSWFRQAPGKEREFVAGISSGGSWIGDITSYADSVKGRFTISRDNAKNMIYLQMNSLKPDDTGVYYCAAASYGTRYYVGSTANEYTTWGQGTQVTVSS
notes: tested as periplasmic extract; also called 2CAM20
B28: anti-IL-12Rβ2 VHH clone 20533 (VHH, not shown: small tags and cut ends)
VHH: QVQLQESGGGLVQAGGSLTLSCTASGRTFSSYTTGWFRQAPGKEREFVAGISSGGSWIGDITSYADSVKGRFTISRDNAKNMIYLQMNSLKPDDTGVYYCAAASYGTRYYVGSTANEYTTWGQGTQVTVSS
notes: tested as periplasmic extract; also called 2CAMS26
B29: anti-IL-12Rβ2 VHH clone 20467 (VHH, not shown: small tags and cut ends)
VHH: QVQLQESGGGLVQAGGSLRLSCAPSGRTFSTLAMAWFRQAPGKEREVVATISWSGGRTYYADSVKGRFTISRDNAKNTAYLQMNSLRPDDTAVYYCAARGSDYGSYDYWGQGTQVTVSS
notes: tested as periplasmic extract; also called 2CAM3
B30: anti-IL-12Rβ2 VHH clone 20477 (VHH, not shown: small tags and cut ends)
VHH: B29 VHH with L32Y, A35G, P41L, T58I, A61T, S101T, S105A, Y106W, D107E
notes: tested as periplasmic extract; also called 2CAM27
B31: anti-IL-12Rβ2 VHH clone 20486 (VHH, not shown: small tags and cut ends)
VHH: B29 VHH with Y80F, G100E
notes: tested as periplasmic extract; also called 2CAM46

Key:
[1] = biological target: T1, biotinylated recombinant mouse IL-12Rβ2 (mouse, UniProt P97378 24-637, random biotinylated); assay: ELISA, periplasmic extract on biotinylated mIL-12Rβ2, signal over control wells
T1 construct: Recombinant protein produced in-house, biotinylated; also called mIL-12RB2; mouse IL-12RB2
T1 sequence: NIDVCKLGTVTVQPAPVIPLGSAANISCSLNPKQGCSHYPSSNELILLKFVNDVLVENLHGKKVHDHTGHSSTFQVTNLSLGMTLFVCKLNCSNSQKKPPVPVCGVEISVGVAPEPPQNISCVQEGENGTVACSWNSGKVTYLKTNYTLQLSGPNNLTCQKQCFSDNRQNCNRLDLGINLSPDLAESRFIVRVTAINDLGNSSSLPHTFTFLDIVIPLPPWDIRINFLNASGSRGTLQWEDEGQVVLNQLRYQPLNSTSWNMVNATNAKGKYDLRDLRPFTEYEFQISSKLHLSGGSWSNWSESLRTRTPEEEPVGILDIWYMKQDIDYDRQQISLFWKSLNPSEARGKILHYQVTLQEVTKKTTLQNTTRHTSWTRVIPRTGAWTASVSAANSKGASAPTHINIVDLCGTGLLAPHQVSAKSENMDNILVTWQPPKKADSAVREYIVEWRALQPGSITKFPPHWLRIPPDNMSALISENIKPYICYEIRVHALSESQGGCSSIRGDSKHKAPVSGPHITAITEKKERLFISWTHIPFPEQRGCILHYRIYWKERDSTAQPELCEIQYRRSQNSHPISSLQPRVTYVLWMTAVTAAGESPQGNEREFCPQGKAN

[2] = biological target: T2, biotinylated recombinant human IL-12Rβ2 (human, UniProt Q99665 24-622, random biotinylated); assay: ELISA, periplasmic extract on biotinylated hIL-12Rβ2, signal over control wells
T2 construct: Recombinant protein produced in-house, biotinylated; also called hIL-12RB2; human IL-12RB2
T2 sequence: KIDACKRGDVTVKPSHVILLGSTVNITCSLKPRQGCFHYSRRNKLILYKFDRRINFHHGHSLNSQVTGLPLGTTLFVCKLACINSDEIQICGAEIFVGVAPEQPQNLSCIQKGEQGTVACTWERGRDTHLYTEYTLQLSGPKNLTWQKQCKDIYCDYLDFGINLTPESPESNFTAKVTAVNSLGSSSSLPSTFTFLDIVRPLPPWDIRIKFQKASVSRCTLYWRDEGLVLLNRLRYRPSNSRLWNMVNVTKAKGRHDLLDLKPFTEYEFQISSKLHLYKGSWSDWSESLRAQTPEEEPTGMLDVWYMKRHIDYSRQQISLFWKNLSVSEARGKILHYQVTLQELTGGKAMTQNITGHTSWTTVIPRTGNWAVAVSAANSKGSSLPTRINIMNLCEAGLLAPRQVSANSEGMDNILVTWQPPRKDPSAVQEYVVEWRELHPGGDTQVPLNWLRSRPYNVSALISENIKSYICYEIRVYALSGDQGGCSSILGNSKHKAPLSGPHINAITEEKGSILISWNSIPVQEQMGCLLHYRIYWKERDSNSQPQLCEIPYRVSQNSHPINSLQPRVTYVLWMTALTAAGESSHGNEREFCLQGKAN

Binder | ELISA binding mIL-12RB2/control [1] | ELISA binding hIL-12RB2/control [2]
B1 | 12 ratio | 1.01 ratio
B2 | 5.04 ratio | 0.996 ratio
B3 | 11.5 ratio | 1.4 ratio
B4 | 12.1 ratio | 1.24 ratio
B5 | 28.4 ratio | 1.47 ratio
B6 | 5.44 ratio | 1.29 ratio
B7 | 5.47 ratio | 0.968 ratio
B8 | 4.43 ratio | 1.01 ratio
B9 | 5.44 ratio | 0.973 ratio
B10 | 5.21 ratio | 1.01 ratio
B11 | 9.62 ratio | 0.93 ratio
B12 | 13.2 ratio | 0.858 ratio
B13 | 4.28 ratio | 0.849 ratio
B14 | 8.48 ratio | 1.03 ratio
B15 | 5.71 ratio | 0.991 ratio
B16 | 12 ratio | 1.31 ratio

Binder | ELISA binding mIL-12RB2/control [1] | ELISA binding hIL-12RB2/control [2]
B17 | 3.81 ratio | 0.812 ratio
B18 | 15.2 ratio | 0.99 ratio
B19 | 6.43 ratio | 1.01 ratio
B20 | 9.41 ratio | 1.07 ratio
B21 | 4.68 ratio | 1.01 ratio
B22 | 4.86 ratio | 1.01 ratio
B23 | 19.5 ratio | 1.01 ratio
B24 | 9.24 ratio | 0.955 ratio
B25 | 14.5 ratio | 1.05 ratio
B26 | 3.8 ratio | 0.847 ratio
B27 | 7.26 ratio | 0.956 ratio
B28 | 3.96 ratio | 0.994 ratio
B29 | 14.2 ratio | 1.04 ratio
B30 | 20.9 ratio | 1.02 ratio
B31 | 6.85 ratio | 0.973 ratio
